{"source": "paper PMC7870846", "about": "“Incorporation of sensing modalities into de novo designed fluorescence-activating proteins” (Nature Communications, 2021)", "binders": {"B1": {"name": "MBP-tagged split mFAP fragment m38 (domain or fragment)", "chain": "YTMDIVAQGTISDGRPIVGYGKATVKTPDTLDIDITYPSLGNIKAQGQITMDSPTQFKWDATTKGENDFHGRLTGTLQRQE", "modifications": "here or on the partner: strands 3-8; cut assumed in loop2 (34/35); MBP omitted / strands 1-2 of mFAP2a; cut assumed in loop2 (34/35, as in cp35-34); exact limits are in Supplementary Data 1, not shown; MBP omitted"}}, "key": {"[1]": {"target": "MBP-tagged split mFAP fragment m12", "assay": "other fluorescence titration; MBP-tagged fragment titrated into its complementary MBP-tagged fragment; 25.0 uM DFHBI-1T; high-salt Tev cleavage buffer (25.0 mM Tris, 100 mM NaCl, pH 8.00); ex 468 nm, em 530 nm; estimated Kd, signal did not plateau"}, "[2]": {"target": "MBP-tagged split mFAP fragment m12", "assay": "split reporter (BiFC, NanoBiT); protein-fragment complementation in vitro: complementary MBP-fused split mFAP fragments mixed at equimolar concentration with excess DFHBI-1T (1.00 uL of 1.25 mM in 25.0 uL); fluorescence endpoint ex 478 nm, em 520 nm; background without protein"}}, "data": [{"binder": "B1", "values": [{"measurement": "Kd", "setting": "[1]", "result": "> 281", "unit": "µM"}, {"measurement": "fold mean fluorescence intensity over background", "setting": "[2]", "result": 7.34, "unit": "fold"}, {"measurement": "fold mean fluorescence intensity over the combination m1 and m28", "setting": "[2]", "result": 184, "unit": "fold"}]}]}
